Results published in paper PMC3392108 (Human Molecular Genetics, 2012).
Where no end group is shown, it is not given here.

Columns and labels:
Test in all cases: fluorescence polarisation
[1] = target: human mitochondrial Hsp70 (mtHsp70), wild-type (human, UniProt P38646 47-679)
[2] = target: human mtHsp70 P509S PD variant (human, UniProt P38646 47-679, P509S)
[3] = target: human mtHsp70 R126W PD variant (human, UniProt P38646 47-679, R126W)
Sequence of human mtHsp70 R126W PD variant (P38646 47-679 R126W): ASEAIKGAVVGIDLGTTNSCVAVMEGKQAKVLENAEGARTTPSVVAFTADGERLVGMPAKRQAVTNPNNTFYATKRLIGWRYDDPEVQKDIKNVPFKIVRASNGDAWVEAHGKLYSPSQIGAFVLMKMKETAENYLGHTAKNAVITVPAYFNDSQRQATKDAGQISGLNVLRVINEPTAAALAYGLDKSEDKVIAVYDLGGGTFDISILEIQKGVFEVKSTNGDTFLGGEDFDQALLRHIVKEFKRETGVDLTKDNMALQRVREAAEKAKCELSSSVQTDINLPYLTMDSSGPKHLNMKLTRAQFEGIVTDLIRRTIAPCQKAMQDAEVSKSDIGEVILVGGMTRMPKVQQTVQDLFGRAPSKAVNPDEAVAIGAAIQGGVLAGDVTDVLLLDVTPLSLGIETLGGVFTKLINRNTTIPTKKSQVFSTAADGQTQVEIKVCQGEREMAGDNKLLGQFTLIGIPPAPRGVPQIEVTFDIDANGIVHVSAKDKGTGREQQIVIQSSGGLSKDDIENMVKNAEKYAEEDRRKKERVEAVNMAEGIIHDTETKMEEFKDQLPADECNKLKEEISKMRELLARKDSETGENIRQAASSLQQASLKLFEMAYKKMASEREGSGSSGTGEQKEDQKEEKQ

Sequence of human mitochondrial Hsp70 (mtHsp70), wild-type (P38646 47-679): as the sequence (P38646 47-679 R126W) above, with W80R counted along it
Sequence of human mtHsp70 P509S PD variant (P38646 47-679 P509S): as the sequence (P38646 47-679 R126W) above, with W80R, P463S counted along it

ALLLSAPRR (also: fluorescein label, position not given here) [fluorescein-labeled P5 peptide (F-P5)]
Kd [1]: 15.6 ± 1.4 µM
Kd [2]: 15.7 ± 1.9 µM
Kd [3]: 13.6 ± 2.7 µM
